In the experiment the target is T1, human MR C-type 1, full extracellular domain (human, UniProt P22897 19-1389).
T1 sequence (looked up): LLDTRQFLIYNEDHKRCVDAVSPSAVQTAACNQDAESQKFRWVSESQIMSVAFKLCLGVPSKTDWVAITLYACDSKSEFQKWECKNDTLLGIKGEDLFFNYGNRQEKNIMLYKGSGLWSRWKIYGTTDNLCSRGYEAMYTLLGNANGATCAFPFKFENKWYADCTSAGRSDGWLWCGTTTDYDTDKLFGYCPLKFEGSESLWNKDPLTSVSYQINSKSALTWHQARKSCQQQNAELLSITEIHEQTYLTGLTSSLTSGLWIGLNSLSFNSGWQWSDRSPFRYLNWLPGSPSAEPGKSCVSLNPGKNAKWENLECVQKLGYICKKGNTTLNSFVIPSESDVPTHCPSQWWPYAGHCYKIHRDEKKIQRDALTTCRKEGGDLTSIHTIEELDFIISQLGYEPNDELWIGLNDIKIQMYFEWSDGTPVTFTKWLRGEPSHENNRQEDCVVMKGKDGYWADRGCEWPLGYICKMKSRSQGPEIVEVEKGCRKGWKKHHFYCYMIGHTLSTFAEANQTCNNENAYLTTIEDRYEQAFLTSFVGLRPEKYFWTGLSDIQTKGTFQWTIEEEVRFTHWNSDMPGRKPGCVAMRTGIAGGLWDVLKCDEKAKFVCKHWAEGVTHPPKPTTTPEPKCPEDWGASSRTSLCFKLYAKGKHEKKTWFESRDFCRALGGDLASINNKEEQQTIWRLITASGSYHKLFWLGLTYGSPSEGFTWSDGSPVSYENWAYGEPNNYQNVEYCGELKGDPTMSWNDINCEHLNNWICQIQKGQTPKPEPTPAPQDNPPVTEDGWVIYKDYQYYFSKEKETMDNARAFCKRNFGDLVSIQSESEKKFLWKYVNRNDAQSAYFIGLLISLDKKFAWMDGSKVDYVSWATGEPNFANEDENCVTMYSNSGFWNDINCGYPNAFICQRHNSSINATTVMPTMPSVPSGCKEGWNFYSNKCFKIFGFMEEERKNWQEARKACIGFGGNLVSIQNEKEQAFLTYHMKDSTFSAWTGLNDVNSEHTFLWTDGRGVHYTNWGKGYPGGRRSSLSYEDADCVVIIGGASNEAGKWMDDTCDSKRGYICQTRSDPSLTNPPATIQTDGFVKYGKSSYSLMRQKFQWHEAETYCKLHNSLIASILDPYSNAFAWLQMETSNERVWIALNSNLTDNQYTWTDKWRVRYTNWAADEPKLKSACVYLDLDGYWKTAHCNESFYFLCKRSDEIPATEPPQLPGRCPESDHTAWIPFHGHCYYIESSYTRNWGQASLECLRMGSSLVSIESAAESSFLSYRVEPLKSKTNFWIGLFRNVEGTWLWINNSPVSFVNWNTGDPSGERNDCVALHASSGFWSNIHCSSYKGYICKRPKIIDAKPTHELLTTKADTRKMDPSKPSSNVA
Briefly: SPR. In general terms: In SPR one partner is held on a chip, and binding of the other changes the refractive index at the surface.

Here are results for one molecule from article PMC11385167 (mAbs, 2024).

B1: RNAse B (enzyme, UniProt P61823 27-150, looked up)
chain: KETAAAKFERQHMDSSTSAASSSNYCNQMMKSRNLTKDRCKPVNTFVHESLADVQAVCSQKNVACKNGQTNCYQSYSTMSITDCRETGSSKYPNCAYKTTQANKHIIVACEGNPYVPVHFDASV
modifications: single N-glycosylation site containing mainly M5 and M6 N-glycans
As for B1, binding was characterised by a dissociation constant (Kd) of 1300 nM.
